From the nanobody polyreactivity screen of Harvey et al. (2022)

Test: yeast display, Sf9 membrane polyspecificity reagent, FACS + sequencing; frameworks hold sequencing errors
Summary of the method: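 Synthetic nanobody libraries on Saccharomyces cerevisiae BJ5465 were galactose-induced for 36–48 hours, stained 1 hour at 4 °C with 10% biotinylated, detergent-solubilized Sf9 membrane reagent and enriched on streptavidin microbeads. FACS then separated cells into low and high (top ~1%) gates by anti-HA (expression) and streptavidin (reagent binding) fluorescence. Genes were colony-PCR amplified, MiSeq 2 × 250 sequenced and CDR-length filtered. A clone's polyreactivity label is that of its gate of origin.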

Sequence | polyreactivity (PSR sort gate)
QVQLVESGGGLVQAGGSLRLSCAASGRILAANAMGWYRQAPGKERELVAAISWSGGRTYYADSVKGRFTISRDNAKNTVYLQMNSLKPEDTAVYYCIKLALAGYDYWGQGTQVTVSS | high polyreactivity
QVQLVESGGGLVQAGGSLRLRGAASGSIFVYYAMGWYRPAPGKERELVASISESDGSTSYADSVKGRFTISRDNAKNTVYLQMNSLKPEDTAVYYCAADPYFYWYSPSFDYWGQGTQVTVSS | low polyreactivity
QVQLVESGGGLVQAGGSLRLSCAASGSIFDGNTMGWSRPAPGKERELVATIRWRGGRTYYADSVKGRFTISRDNAKNTVSLQMNSLKPEDTAVYYCNARWGYSRHRLMGYWGQGTQVTVSS | high polyreactivity
QVQLVESGGGLVQAGCSLRLSCAASGFTFRANGMGWYRQAPGKERELVATITSGGTTNYADSVKGRFTISRDNAKNTVYLQMNSLKPEDTAVYYCAKRFGPAYFRLYDYWGQGTQVTVSS | low polyreactivity
QVQLVESGGGLVQAGGSLRLSCAASGRTFYLYTMGWYRQAPGKERELVAAISRGGRTYADSVKGRFTISRDNAKNTVYLQMNSLKPEDTAVYYCAAESVYQGWSYQHGKGDYWGQGTQVTVSS | low polyreactivity
QVQLVESGGGLVQAGGSLRLSCAASGRIFAGYALGWYRPAPGKERELVATSTRGGSTNYADSVKRPFTISRDNAKNTVYLQMNSLKPEDTAVYYCAAPYSSYKVRPYDYWGQGTQVTVSS | low polyreactivity
QVQLVESGGGLVQAGGSLRLSCAASGRIFKYNAMGWYRQAPGKERELVAAISWTGVSTHYADSVKGRFTISRDNAKNTVYLQMNSLKPEDTAVYYCAARVGRGVYYHWRDYWGQGTQVTVSS | low polyreactivity
QVQLVESGGGLVQAGGSLPLSCAATGRTFSYNAMGSYRQAPAKETELVAAISSGGTTNYADSVKGRFTISRDNAKNTVYLQMNSVKPDDTAVYYCNADRLVWSFTDYGFSQYDYWGQGTQVTVSS | low polyreactivity
QVQLVESGGGLVQAGGTLRLSCAASGSIFPRYGMGWYRHAPGKERELVAAISGSGGSTYYADSVKGRFTISRDNAKNTVYLQMNSLKPEDTAVYYCNKLRRRVNRDIDDYWGQRTQVTVSS | high polyreactivity
QVQLVESGGGLVQAGGSLRLSCAASGLTFVPNAMGWYRQAPGKERELVAAISNNGGRTYYADSVKGRFTISRDNAKNTVYLQMNSLKPEDTAVYYCAKYLSPGERHSYDYWGQGTQVTVSS | high polyreactivity
QVQLVESGGGLVQAGGSLRLSCAASGRIFTRYAMGWYRQAPGKERELVAAITYNGGSTYYADSVKGRFTISRDNAKNTVYLQMNSLKPEDTAVYYCNAVYLSWFGLYAGFDYWGQGTQVTVSS | high polyreactivity
QVQLVESGGGLDQAGGSLRLSCAASGSIFYRNAMGWYRQAPGKEMELVAAISGRGGSTNYADSVKGRFTISRDNAKNTVYLPMNSLKPEDTAVYYCNRFGVSNILVRGGYWGLGTQVTVSS | high polyreactivity
QVQLVESGGGLVQAGGSLRLSCAASGFIFGRYAMGWYRQSPGKERELVAVISKRGDNTYYADSVKGRFTISRDNAKNTVYLQMNSLKPEDTAVYYCNVKRYGGRSDYWGQGTQVTVSS | high polyreactivity
QVQLVESGGGLVQAGGSLRLSCAASGSTFGKNALGWYRQAPGKERELVAAITRRGGSTNYADSVKGRFTISRDNAKNTVYLQMNSLKPEDTAVYYCNAGYGYGYPKYDYWGQGTQVTVSS | high polyreactivity
QVQVVESGVGLVQSGGSLRLSYAASGSIFIPYPMGWYRQAPGKERELVAAISSSGSTYYADSVKGRFTISRDNAKNTFYLQMNSLKPEDTAVYYCAAERHYSYSSYDDWGQGTQVTVSS | low polyreactivity
QVQLVESGGGLVQAGGSLRLSCAASGSTFRYYAMGWYRQAPGKERELVAAISGSGGRTYYADSVKGRFTISRDNAKNTVYLQMYSLKPEDTAVYYCNTRGRRTDYDYWGQGTQVTVSS | high polyreactivity
QEQLQESGGGQVQAGGSLLLSCAASGNIIRYYYMGWYRQAPGKERELVAAITYGTSTNYADSVKGRFTISRDNEKNTVYLQMNSLKPEDSAVYYFAVVVNYGDPLVNWGQGTQVTVSS | high polyreactivity
QVQLVESGGGLVQAGGSLRLSCAASGSILYYNAMGWYRQAPGKERELVAGIRSSGGSTYYADSVKGRFTISRDTAKNTVYLQMNSLKPEDTAVYYCAKRTYWRRGWGFDYWGQGTQVTVSS | high polyreactivity
QVQLVESGGGLVQAGGSLRISCAASGRNFPNYAMGWYRQAPGKERELVAAITSSGGSTYYADSVKGRFTISRDNAKNTVYLQMNSLKPEDTAVYYCNAGSWIRNDYWGQGTQVTVSS | high polyreactivity
QVQLVESGGGLVQAGGSLRLSCAASGSTFAYYAMGWYRQAPGKERELVAAISASGSRTYYADSVKGRFTISRDNAKNTVYLQMNSLKPEDTAVYYCAALQYRRKIPTAYAGDYWGQGTQVTVSS | high polyreactivity
QVQLVESGGGLVQAGGSLRLRCAASGGIINWYAMGWYRQAQGKERELVAAISWRTTSTYYADSVKGRFTISRDTAKNTVYLQMNCLKPEDTAVYYCYASGEVLAAVVTYDYWGQGTQVTVSS | low polyreactivity

Sequence | polyreactivity (PSR sort gate)
QVQLVESGGGLVQAGGSLRLSCAASGRIFGSYAMGWYRPAPGKERELVAAINRSGGSTRYADSVKGRFTISRDNAKNTVYLQMNSLKPEDTAVYYCAAPSYARYYAYDSWGQGTQVTVSS | high polyreactivity
QVQIEESGGGLVQAGGSLRLSCAASGITFYWYARGWYRQAPVTERELVAAITRSGSSTYYADSVKGRFTISRDNAKNTVYLQMYSLKPEDTAVDYCAALPYKPYYDAYDYWGQGTQVTVSS | high polyreactivity
QVQLVESGGGLVQAGGSLRLSCAASGSTFRINAMGWYRLAPGKEREFVAAIRWNGGSTNYADSVKGRFTISRDNAKNTVYVQMNSLKPEDTAVYYCAADGYIGWRHIYEYWGQGTQVTVSS | low polyreactivity
QVQLVESGGGLVQAGGRLRLSCAASGRISYYYTMGWYRQAPGKERQLVAAISWSGGTTYYADSVKGRFTISRDNAKNTVYLQMNSLKPEDTAVYYCAAREYYTDVHGTRRYDYWGQGTQVTVSS | low polyreactivity
QVQLVYSRRGLVQAGGSLRLSCAASGLIFAWYAIGWYRQATVNVRELVATISWNGDRTYYADSVKGRFTIARDNGKTSVYLQINSLQAEDTAVYYCAAYSVFRSYDYWGQGTQVTVSS | high polyreactivity
QDHLVESGGGLVQAGCSLRLTCAASGSIFIPNAMGWYRQAPGKERYLVAAIRSGGSSYYADSVKGRFTISRDNAKNTVYLQMNSLKPEDTAVYYCAADTYTYYYYLARYYYWGQGTQVTVSS | low polyreactivity
QVQLVESGGGLVQAGGSLRLSCAASGRIFTRNAMGWYRQAPGKERELVATISAGGGRTSYADSVKGRFTISRDNAKNTVYLQMNSLKPEDTAVYYCAARGQVGYYWGQGTQVTVSS | high polyreactivity
QVQLVESGGGLVQAGGSLRLSCAASGSTFVGNAMGWYRQAPGKERELVAGITSSGTSTYYADSVKGRFTMSRDNAKNSVYLQMNRLKPEDTAVYYCATDDADESYGFELFDYWGLGTQVTVSS | low polyreactivity
QVQLEESGGGLVQAGGSLRLSCAASGSIFPWYAMGWYRQAPGKERELVAVITSGGSTNYADSVKGRFTISRANAKNTVYLQMNSLYPEDTAVYYCYADAPLDDFSPRFEVSTEHSWGQGTQVTVSS | low polyreactivity
QVQLVESGGGLVQAGGSLRLSCAASGRTFVFNDMGWYRQAPGKERELVAAITKNGGSTYYADSVKGRFTISRDTAKNTVYLHMNSLKPEDTAVYYSNASFQYYDYWGQGTQVTVSS | low polyreactivity
QVQLVESGGGLVQAGGSLRLSCDASGRTFDVYTKGWYRQAPGKERELVDANNGGGSTYYADSVKGRFTISRDNAKNTVYLQMNSLKPEDPAVFYCAAKFRAGRSSYRGSPRYDSWGQGTHVTVSS | high polyreactivity
QVHLVESGGGLVQAGGSLRLSCAASGLTFYWYTMGWYRQAPGKERELVAAITSGGSTSYADSVKGRFTISRDNAKNTVYLQMNSLKPEDTAVYYCAADGQVSGYDYWGQGTQVTVSS | high polyreactivity
QVQLVESGGGLVQAGGSLRLSCAASGFTFKRYAMGWYRQAPGKERELVAAISWSGGSTYYADSVKGRFTISRDNAKNTVYLQMNSLKPEDTAVYYCAADGGSTEEYYYWGQGTQVTVSS | high polyreactivity
QVQLVESGGGLVQAGGSLRLSCAASGYTFKYYTMGWYRQAPGKESELVAAITRSGGSTYYADSVKGRFTISRDNAKNTVYLQINSLKPEDTAVYYCAARAAYKQPVSFDYWGQGTQVTVSS | high polyreactivity
QVQLVESGGGLVQAGGSLRLSCAASGFIFHNYVMGWYRQAPGKERELVAVISGSGGSTYYADSVKGRFTISRDNAKNTVYLQMNSLKPEDTAVYYCAADNVYGYDYWGQGTQVTVSS | low polyreactivity
QVQLVESGGGLVQAGGSLRLSCAASGSTFFWYAMGWYRQAPGKEREFVAAITYRGGSTHYADSVKGRFTISRDNAKNTVYLQMNSLKPEDTAVYYCAARSLRYPYDYWGQGTQVTVSS | low polyreactivity
QVHLVESGGGLVQPGGSLRLSCAASGFPFYINAMGWYRQAPGTERELVAAITIGSTTYYADSVKGRCTISRDNAKNTVYLQMNSLKPEDTAVYYCAAEVWRDYTSRLYDYWGQGTQVTVSS | low polyreactivity
QVQLVESGGGLVQAGGSLRLSCAASGRTFHSYAMGWYRPAPGKETELVAGISWGGTRTTYADSVTGRFTISRDNAKNTVYLQMNSLKPEDTAVYYCNAVYYALGRSPPDYGYWGQGTQVTVSS | low polyreactivity
QVQLVESGGGLVQAGGSLRLNCAASGRISTYYVMGWYRQAPGKERELVAAINWSDGSTYYADSVKGRFTISRDNAKNTVYFQMNSLKPEDTAVYYCNVDAGVEGGTVDYWGQGTQVTVSS | low polyreactivity
QVQLVESGGGLVQAGGSLRLSCAASGRTFGSNAMGWYRQAPGKERELVAAISRVGSTYYADSVNGRFTISRDNAMNTVYLQMNSLKPEDTAVYYCPYDYWGQGTQVTVSS | low polyreactivity
